This note sets out measurements from patent US20230192896A1 (BIOVERATIV THERAPEUTICS, published 2023).

The target of the test is T1, non-activatable Factor X (FXn) (Homo sapiens (Human), UniProt P00742 41-488, single biotin on the C-terminal BioTag).
T1 construct: also called BIIB-FX-015
The experiment in a line: BLI; class meaning: paragraph 285. Background: In BLI a coated tip is dipped into the sample, and binding shifts an interference pattern.

Numbering of substitutions follows the chain as printed.

B1: BIIB-12-933 (antibody, V domains shown)
VH: QVQLVESGGGVVQPGRSLRLSCAASGFTFSSYGMHWVRQAPGKGLEWVAVISYDGSNKYYADSVKGRFTISRDNSKNTLYLQMNSLRAEDTAVYYCARLPRFTGTAYWGQGTLVTVSS
VL: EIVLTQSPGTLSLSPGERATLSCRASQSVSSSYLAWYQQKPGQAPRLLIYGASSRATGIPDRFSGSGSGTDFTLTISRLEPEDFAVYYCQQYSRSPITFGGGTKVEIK
notes: IgG
B1: the binding result was “binds”.

B2: BIIB-12-1298 (antibody, V domains shown)
VH: B1 VH with R98K, L99G, P100G, R101S, F102D, T103R, G104R, T105V, A106G, Y107S
VL: DIQMTQSPSSVSASVGDRVTITCRASQGISSWLAWYQQKPGKAPKLLIYAASSLQSGVPSRFSGSGSGTDFTLTISSLQPEDFATYYCQQTNSLPITFGGGTKVEIK
notes: IgG
On to B2, for which the binding result is “binds”.

B3: BIIB-12-1304 (antibody, V domains shown)
VH: B1 VH with R98K, L99G, R101G, F102S, T103R, G104R, T105F, A106D, Y107I, L113M
VL: EIVMTQSPATLSVSPGERATLSCRASQSVSSNLAWYQQKPGQAPRLLIYGASTRATGIPARFSGSGSGTEFTLTISSLQSEDFAVYYCQQANVLPLTFGGGTKVEIK
notes: IgG
With B3, the binding result is reported as “binds”.

B4: BIIB-12-1316 (antibody, V domains shown)
VH: QVQLVESGGGVVQPGRSLRLSCAASGFTFSSYGMHWVRQAPGKGLEWVAVISYDGSNKYYADSVKGRFTISRDNSKNTLYLQMNSLRAEDTAVYYCAKSGQYRAFDIWGQGTMVTVSS
VL: B2 VL with T91I, S93N, L94F, I96P
notes: IgG
Regarding B4, the binding result is “binds”.

B5: BIIB-12-1306 (antibody, V domains shown)
VH: QVQLQESGPGLVKPSQTLSLTCTVSGGSISSGGYYWSWIRQHPGKGLEWIGSIYYSGSTYYNPSLKSRVTISVDTSKNQFSLKLSSVTAADTAVYYCARGAGGSAPWGQGTLVTVSS
VL: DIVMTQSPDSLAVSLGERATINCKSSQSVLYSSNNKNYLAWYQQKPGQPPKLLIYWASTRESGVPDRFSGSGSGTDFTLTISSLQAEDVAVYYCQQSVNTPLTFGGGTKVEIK
notes: IgG
Consider B5, for which the binding result is given as “binds”.

B6: BIIB-12-1289 (antibody, V domains shown)
VH: QVQLVQSGAEVKKPGASVKVSCKASGYTFTSYYMHWVRQAPGQGLEWMGIINPGGGSTSYAQKFQGRVTMTRDTSTSTVYMELSSLRSEDTAVYYCARGPPRTYATGSHNWFDPWGQGTLVTVSS
VL: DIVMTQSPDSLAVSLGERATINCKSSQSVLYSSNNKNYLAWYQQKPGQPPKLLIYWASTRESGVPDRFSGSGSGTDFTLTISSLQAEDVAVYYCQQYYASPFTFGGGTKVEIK
notes: IgG
As for B6, the binding result was “binds”.

B7: BIIB-12-1288 (antibody, V domains shown)
VH: QVQLVQSGAEVKKPGASVKVSCKASGYTFTSYYMHWVRQAPGQGLEWMGIINPSGGSTSYAQKFQGRVTMTRDTSTSTVYMELSSLRSEDTAVYYCARGGANDYGSSSRWWYFDLWGRGTLVTVSS
VL: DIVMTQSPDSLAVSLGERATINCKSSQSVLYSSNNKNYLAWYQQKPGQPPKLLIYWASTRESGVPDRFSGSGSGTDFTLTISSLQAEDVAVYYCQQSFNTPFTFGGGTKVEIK
notes: IgG
Regarding B7, the binding result is “binds”.

B8: BIIB-12-1303 (antibody, V domains shown)
VH: QVQLVESGGGVVQPGRSLRLSCAASGFTFSSYGMHWVRQAPGKGLEWVAVISYDGSNKYYADSVKGRFTISRDNSKNTLYLQMNSLRAEDTAVYYCARGPTSRLFQHWGQGTLVTVS
VL: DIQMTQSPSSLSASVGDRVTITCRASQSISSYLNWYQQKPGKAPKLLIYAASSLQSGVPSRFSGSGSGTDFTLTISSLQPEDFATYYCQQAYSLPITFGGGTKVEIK
notes: IgG
As for B8, the binding result is on record as “binds”.

B9: BIIB-12-936 (antibody, V domains shown)
VH: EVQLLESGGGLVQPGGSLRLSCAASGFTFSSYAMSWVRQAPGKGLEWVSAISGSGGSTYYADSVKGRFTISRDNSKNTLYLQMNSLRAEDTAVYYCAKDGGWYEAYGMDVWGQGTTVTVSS
VL: B3 VL with A91S, N92H, V93N, L96P
notes: IgG
As for B9, the binding result is listed as “binds”.

B10: BIIB-12-1302 (antibody, V domains shown)
VH: QVQLVQSGAEVKKPGASVKVSCKASGYTFTNYGISWVRQAPGQGLEWMGWISAYNGNTNYAQKLQGRVTMTTDTSTSTAYMELRSLRSDDTAVYYCARARSDWRAFDIWGQGTMVTVSS
VL: B3 VL with A91V, V93N
notes: IgG
For the molecule B10, the binding result was “binds”.

B11: BIIB-12-1313 (antibody, V domains shown)
VH: QVQLVESGGGVVQPGRSLRLSCAASGFTFSSYGMHWVRQAPGKGLEWVAVISYDGSNKYYADSVKGRFTISRDNSKNTLYLQMNSLRAEDTAVYYCAKGTGWWRYWGQGTLVTVSS
VL: B3 VL with A91H, V93H, L96I
notes: IgG
As to B11, the binding result is listed as “binds”.

B12: BIIB-12-1291 (antibody, V domains shown)
VH: QVQLVQSGAEVKKPGASVKVSCKASGYTFTSYYMHWVRQAPGQGLEWMGIINPSGGSTSYAQKFQGRVTMTRDTSTSTVYMELSSLRSEDTAVYYCARSRRMWVGYFDLWGRGTLVTVSS
VL: EIVLTQSPATLSLSPGERATLSCRASQSVSSYLAWYQQKPGQAPRLLIYDASNRATGIPARFSGSGSGTDFTLTISSLEPEDFAVYYCQQRLNLPLTFGGGTKVEIK
notes: IgG
On to B12, for which the binding result is on record as “binds”.

B13: BIIB-12-1301 (antibody, V domains shown)
VH: QVQLVESGGGVVQPGRSLRLSCAASGFTFSSYGMHWVRQAPGKGLEWVAVISYDGSNKYYADSVKGRFTISRDNSKNTLYLQMNSLRAEDTAVYYCARTGNYGRGMPYWGQGTLVTVSS
VL: B12 VL with N53K, R91S, L92S, N93S, L94W, L96P
notes: IgG
Take B13: the binding result was “binds”.

B14: BIIB-12-1310 (antibody, V domains shown)
VH: EVQLVESGGGLVKPGGSLRLSCAASGFTFSSYSMNWVRQAPGKGLEWVSSISSSSSYIYYADSVKGRFTISRDNAKNSLYLQMNSLRAEDTAVYYCARLGGYGSSQRYFDLWGRGTLVTVSS
VL: B12 VL with S31R, Q89E, R91A, L92S, L94W, L96P
notes: IgG
Regarding B14, the binding result is on record as “binds”.

B15: BIIB-12-1292 (antibody, V domains shown)
VH: QVQLVQSGAEVKKPGASVKVSCKASGYTFTSYYIHWVRQAPGQGLEWMGIINPSGGSTSYAQKFQGRVTMTRDTSTSTVYMELSSLRSEDTAVYYCARDPGRRQSSGFDYWGQGTLVTVSS
VL: B12 VL with L4M, A51S, L94F, L96F
notes: IgG
Regarding B15, the binding result is “binds”.

B16: BIIB-12-1297 (antibody, V domains shown)
VH: QVQLVESGGGVVQPGRSLRLSCAASGFTFSSYGMHWVRQAPGKGLEWVAVISYDGSNKYYADSVKGRFTISRDNSKNTLYLQMNSLRAEDTAVYYCARSGGQTHRRSMDVWGQGTTVTVSS
VL: B12 VL with S31R, R91G, L92N, L94W, L96P
notes: IgG
In the case of B16, the binding result is “binds”.

B17: BIIB-12-1315 (antibody, V domains shown)
VH: QVQLVQSGAEVKKPGASVKVSCKASGYTFTSYYMVWVRQAPGQGLEWMGIINPSGGSTSYAQKFQGRVTMTRDTSTSTVYMELSSLRSEDTAVYYCARGRPSSKRVTYFDYWGQGTLVTVSS
VL: EIVMTQSPATLSVSPGERATLSCRASQSVSSNLAWYQQKPGQAPRLLIYGASTRATGIPARFSGSGSGTEFTLTISSLQSEDFAVYYCQQVFNWPPWTFGGGTKVEIK
notes: IgG
As to B17, the binding result is recorded as “binds”.

B18: BIIB-12-932 (antibody, V domains shown)
VH: QVQLVESGGGVVQPGRSLRLSCAASGFTFSSYGMHWVRQAPGKGLEWVAVISYDGSNKYYADSVKGRFTISRDNSKNTLYLQMNSLRAEDTAVYYCARLGYRGASAFDIWGQGTMVTVSS
VL: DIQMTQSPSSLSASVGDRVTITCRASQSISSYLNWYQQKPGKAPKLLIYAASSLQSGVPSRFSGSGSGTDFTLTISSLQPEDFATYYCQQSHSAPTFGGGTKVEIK
notes: IgG
With B18, the binding result is given as “binds”.

B19: BIIB-12-935 (antibody, V domains shown)
VH: B18 VH with L99E, G100L, Y101E, R102Y, A104H, S105Y, A106G, F107M, I109V, M115T
VL: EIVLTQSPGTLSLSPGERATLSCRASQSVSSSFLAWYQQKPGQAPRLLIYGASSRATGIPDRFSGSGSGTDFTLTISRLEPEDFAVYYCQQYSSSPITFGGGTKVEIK
notes: IgG
Regarding B19, the binding result is listed as “binds”.

B20: BIIB-12-1305 (antibody, V domains shown)
VH: B18 VH with R98K, Y101G, G103W, A104S, A106D, D108Q, I109H, M115L
VL: B12 VL with R91S, L92A, L94W, L96P
notes: IgG
Turning to B20, the binding result is “binds”.

B21: BIIB-12-934 (antibody, V domains shown)
VH: QVQLVESGGGVVQPGRSLRLSCAASGFTFSSYGMHWVRQAPGKGLEWVAVISYDGSNKYYADSVKGRFTISRDNSKNTLYLQMNSLRAEDTAVYYCARESGGHSYGMDVWGQGTTVTVSS
VL: EIVLTQSPATLSVSPGERATLSCRASQSVSSNLAWYQQKPGQAPRLLIYGASTRATGIPARFSGSGSGTEFTLTISSLQSEDFAVYYCQQFNDHPITFGGGTKVEI
notes: IgG
Turning to B21, the binding result is given as “binds”.

B22: BIIB-12-937 (antibody, V domains shown)
VH: QVQLVQSGAEVKKPGASVKVSCKASGYTFTSYYMHWVRQAPGQGLEWMGIINPSGGSTSYAQKFQGRVTMTRDTSTSTVYMELSSLRSEDTAVYYCARPTRMLRSYGMDVWGQGTTVTVSS
VL: not shown
notes: IgG
With B22, the binding result is reported as “binds”.

B23: BIIB-12-1295 (antibody, V domains shown)
VH: QVQLVQSGAEVKKPGASVKVSCKASGYTFTSYYMVWVRQAPGQGLEWMGIINPSGGSTSYAQKFQGRVTMTRDTSTSTVYMELSSLRSEDTAVYYCARVGGATTGKIGYGMDVWGQGTTVTVSS
VL: B2 VL with S53N, T91A, N92I
notes: IgG
On to B23, for which the binding result was “binds”.

B24: BIIB-12-1312 (antibody, V domains shown)
VH: QVQLVESGGGVVQPGRSLRLSCAASGFTFSSYGMHWVRQAPGKGLEWVAVISYDGSNKYYADSVKGRFTISRDNSKNTLYLQMNSLRAEDTAVYYCAKGMGHWIDYWGQGTLVTVSS
VL: B2 VL with T91A, N92S, L94F, I96P
notes: IgG
Regarding B24, the binding result is “binds”.

B25: BIIB-12-1307 (antibody, V domains shown)
VH: QVQLQESGPGLVKPSETLSLTCAVSGYSISSGYYWAWIRQPPGKGLEWIGSIYHSGSTYYNPSLKSRVTISVDTSKNQFSLKLSSVTAADTAVYYCARGPLPRSRGLAFDIWGQGTMVTVSS
VL: B2 VL with M4L, V11L, G28S, W32F, A34N, N92Y, L94T, I96L
notes: IgG
On to B25, for which the binding result was “binds”.

B26: BIIB-12-1317 (antibody, V domains shown)
VH: B24 VH with K98R, M100V, H102G, W103H, I104D, D105T, Y106R
VL: B2 VL with T91R, N92H, I96P
notes: IgG
Turning to B26, the binding result is given as “binds”.
